Experimental findings from article PMC3319458 (2012) are described below.

The target in the experiment is Nfs1/Isd11/Isu2 (SDU) complex (Homo sapiens, UniProt Q9Y697). As to the kind of experiment: cysteine desulfurase activity titration.

B1: Frataxin 82-210 (protein)
chain: GTLGHPGSLDETTYERLAEETLDSLAEFFEDLADKPYTFEDYDVSFGSGVLTVKLGGDLGTYVINKQTPNKQIWLSSPSSGPKRYDWTGKNWVYSHDGVSLHELLAAELTKALKTKLDLSSLAYSGKDA
For the molecule B1, binding was put at a Kd of 220 nM.
